The results in this text go back to publication PMC9091064.

The target of assay [1] is SARS-CoV-2 3CLpro E14A (SARS-CoV-2). As to the kind of experiment: SEC.
The target in assay [2] is SARS-CoV-2 3CLpro E14D (SARS-CoV-2). The assay can be described thus: SEC. Background: In gel filtration, larger molecules generally elute earlier.
Assay [3] deals with SARS-CoV-2 3CLpro E14Q (SARS-CoV-2). As to the kind of experiment: SEC.
Assay [4] addresses SARS-CoV-2 3CLpro E14S (SARS-CoV-2). As to the kind of experiment: SEC.
For assay [5], the target named is SARS-CoV-2 3CLpro E290A (SARS-CoV-2). The assay can be described thus: SEC.
The target of assay [6] is SARS-CoV-2 3CLpro E290D (SARS-CoV-2). As to the kind of experiment: SEC.
Assay [7] concerns the target SARS-CoV-2 3CLpro E290Q (SARS-CoV-2). The assay can be described thus: SEC.
The target in assay [8] is SARS-CoV-2 3CLpro E290Y (SARS-CoV-2). As to the kind of experiment: SEC.
In assay [9] the target is SARS-CoV-2 3CLpro K12A (SARS-CoV-2).
Assay [10] has the same target. The assay can be described thus: SEC.
Assay [11] deals with SARS-CoV-2 3CLpro Q299A (SARS-CoV-2). As to the kind of experiment: SEC.
For assay [12], the target named is SARS-CoV-2 3CLpro Q299E (SARS-CoV-2). The assay can be described thus: SEC.
The target of assay [13] is SARS-CoV-2 3CLpro Q299N (SARS-CoV-2). As to the kind of experiment: SEC.
The target of assay [14] is SARS-CoV-2 3CLpro R4A (SARS-CoV-2). The assay can be described thus: SEC.
Assay [15] concerns the target SARS-CoV-2 3CLpro R4Q (SARS-CoV-2). The assay can be described thus: SEC.
The target in assay [16] is SARS-CoV-2 3CLpro S1A (SARS-CoV-2). As to the kind of experiment: SEC.
Assay [17] addresses SARS-CoV-2 3CLpro S10A (SARS-CoV-2). The assay can be described thus: SEC.
The target of assay [18] is SARS-CoV-2 3CLpro S10C (SARS-CoV-2). As to the kind of experiment: SEC.
For assay [19], the target named is SARS-CoV-2 3CLpro S10T (SARS-CoV-2). The assay can be described thus: SEC.
Assay [20] deals with SARS-CoV-2 3CLpro S139A (SARS-CoV-2). The assay can be described thus: SEC.

What is called stoichiometry N is the number of molecules, sites or subunits per partner or assembly.

In turn, SARS-CoV-2 3CLpro E14A (enzyme) returned a stoichiometry N in [1] of 2. With SARS-CoV-2 3CLpro E14D (enzyme), the stoichiometry N in [2] was determined as 2. SARS-CoV-2 3CLpro E14Q (enzyme): the stoichiometry N in assay [3] was 2. SARS-CoV-2 3CLpro E14S (enzyme) yielded a stoichiometry N in assay [4] of 2. SARS-CoV-2 3CLpro E290A (enzyme) registered a stoichiometry N in [5] of 2. SARS-CoV-2 3CLpro E290D (enzyme) showed a stoichiometry N in assay [6] of 2. Take SARS-CoV-2 3CLpro E290Q (enzyme): the stoichiometry N in assay [7] came to 2. The substance SARS-CoV-2 3CLpro E290Y (enzyme) yielded a stoichiometry N in [8] of 2. Regarding SARS-CoV-2 3CLpro K12A (enzyme), the relative proteolytic activity on the FRET peptide substrate, percent of WT in assay [9] is 60%. For the same substance, in [10], the share of the monomer form was 60% and the stoichiometry N was determined as 2. Substance SARS-CoV-2 3CLpro Q299A (enzyme) gave a stoichiometry N in assay [11] of 2. SARS-CoV-2 3CLpro Q299E (enzyme): the stoichiometry N in assay [12] was determined as 2. For the substance SARS-CoV-2 3CLpro Q299N (enzyme), the stoichiometry N in assay [13] stood at 2.

In assay [14], SARS-CoV-2 3CLpro R4A (enzyme) came in with a stoichiometry N of 2. On to SARS-CoV-2 3CLpro R4Q (enzyme), for which the stoichiometry N in [15] stood at 2. SARS-CoV-2 3CLpro S1A (enzyme) came in with a stoichiometry N in assay [16] of 2. For SARS-CoV-2 3CLpro S10A (enzyme), the stoichiometry N in assay [17] turned out to be 2.

In assay [18], SARS-CoV-2 3CLpro S10C (enzyme) registered a stoichiometry N of 2. In [19], SARS-CoV-2 3CLpro S10T (enzyme) yielded a stoichiometry N of 2. As for SARS-CoV-2 3CLpro S139A (enzyme), the stoichiometry N in assay [20] was 2.
